# Publication PMC3033579
# T1: SSB (Bacillus subtilis, UniProt P37455 1-172)
# T1 sequence: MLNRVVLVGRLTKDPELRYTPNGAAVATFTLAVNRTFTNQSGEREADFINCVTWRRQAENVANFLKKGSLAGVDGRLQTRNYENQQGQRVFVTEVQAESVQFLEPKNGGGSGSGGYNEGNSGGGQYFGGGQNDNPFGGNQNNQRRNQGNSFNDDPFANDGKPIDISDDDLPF
# T2: DnaD (Bacillus subtilis, UniProt P39787 1-232)
# T2 sequence: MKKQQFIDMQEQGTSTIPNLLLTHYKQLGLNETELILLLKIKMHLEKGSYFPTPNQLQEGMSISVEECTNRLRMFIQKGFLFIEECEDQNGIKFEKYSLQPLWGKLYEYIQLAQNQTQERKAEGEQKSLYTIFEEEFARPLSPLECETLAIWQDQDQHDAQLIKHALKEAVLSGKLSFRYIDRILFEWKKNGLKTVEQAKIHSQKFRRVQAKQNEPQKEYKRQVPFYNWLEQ
# How the values were obtained:
# [1] = biological target: T1, SSB; test: EMSA
# [2] = biological target: T2, DnaD; test: EMSA
binder,measurement,setting,value
TTACACAGTAACTCATATGCTTCGCTATTACGCC (ssDNA) [34mer oligonucleotide],binding signal,[1],600 fold higher affinity than Cd and DnaD
same,binding signal,[2],600 fold lower affinity than SSB
